Assay results taken from the nanobody polyreactivity screen of Harvey et al. (2022).

Test: yeast display, Sf9 membrane polyspecificity reagent, FACS + sequencing; frameworks hold sequencing errors
Outline: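 Nanobodies from a synthetic yeast display library (Saccharomyces cerevisiae BJ5465), induced 36–48 hours with galactose, were stained 1 hour at 4 °C with 10% biotinylated, detergent-solubilized Sf9 membrane reagent, enriched on streptavidin microbeads, then FACS-sorted. Anti-HA (expression) and streptavidin (reagent binding) fluorescence set low and high (top ~1%) gates. Polyreactivity labels come from the gate of origin. Genes were colony-PCR amplified, MiSeq 2 × 250 sequenced and filtered by CDR length.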

| Sequence | polyreactivity (PSR sort gate) |
| --- | --- |
| QVQLVESGGGLVQAGGSLRLSCAASGRTFAYNDMGWYRQAPGKERELVAAITSVASTYYADSVKGRFTISRDNAKNTVYLQMNSLKPEDTAVYYCAADTRSLRPRYQLYGEDSWGQGTQVTVSS | low polyreactivity |
| QVQLVESGGGLVQAGGSLRLSCAASGRTFAYNTMGWYRQAPGKEREFVAAIDSGDSTYYADSVKGRFTISRDNAKNTVYLQMNSLKPEDTAVYYCAARRYYGYDYWGQGTLVTVSS | high polyreactivity |
| QVQLVESGGGLVQAGGSLRLSCAASGRTFAYNTMGWYRQAPGKERELVAAITSGGSTYYADSVKGRFTISRDNAKNTVYLQINSLKPEDTAVYYCSAVDYWDYFYWRDDYWGQGTQVTVSS | low polyreactivity |
| QVQLVESGGGLVQAGGSLRLSCAASGRTFAYNVMGGYRQAPGKERELVAGISFGAGSTYYADSVKGRFTISRDNAKNTVYLQMNSLNPEDTAVYYCATRRRGTRYQLGYDYWGQGTQVTVSS | high polyreactivity |
| QVQLVESGGGLVQAGGSLRLSCAASGRTFAYYAMGWYRQAPGKERELVAAISTSGTRTYYADSVKGRFTISRDNAKNTVYLQMNSLKPEDTAVYYCAARYRYQYEFDYWGQGTQVTVSS | high polyreactivity |
| QVQLVESGGGLVQAGGSLRLSCAASGRTFAYYVMGWDRQAPGKERELVAAISWSAGSTYYADSVKGRFTISRDNAKNTVYLQMNSLKPEDTAVYYCAADYRFRYEYWGQGTQVTVSS | low polyreactivity |
| QVQLVESGGGLVQAGGSLRLSCAASGRTFDDYAMGWDRQAPGKERELVAAITQNGRDTYADSVKGRFTISRDNSKKYRLFTDVQPVTGRYRGLLLRCVRYEVNLYDYWGQGTQVTVST | low polyreactivity |
| QVQLVESGGGLVQAGGSLRLSCAASGRTFDGNAMGWYRQAPGKEGEFVATISTDGGSTHYADSVKGRFTISRDNAKNTVYLQMNSLKPEDTAVYYCAADTPWYDDNYDYWGQGTQVTVSS | low polyreactivity |
| QVQLVESGGGLVQAGGSLRLSCAASGRTFDGNAMGWYRQAPGKERELVAAISQGGGSTYYADSVKGRFTISRDNAKNTVYLQMNSLKPEDTAVYYCNAVGYTPRKPSKFDYWGQGTQVTVSS | low polyreactivity |
| QVQLVESGGGLVQAGGSLRLSCAASGRTFDGYAMGWYRQAPGKERELVAAISTSGVRTYYADSVKGRFTISRDNAKNTVYLQMNSLKPEDTAVYYCAADWTGGYEYWGQGTQVTVSS | high polyreactivity |
| QVQLVESGGGLVQAGGSLRLSCAASGRTFDGYMGWYRQAPGKERELVAAISYDTGSTYADSVKGRFTISRDNAKNTVYLQMNSLKPEDTAVYYCYGYPYQTLYGYWGQGTQVTVSS | low polyreactivity |
| QVQLVESGGGLVQAGGSLRLSCAASGRTFDHYAMGWYRQAPGKERELVAAITSGGSTYYADSVKGRFTISRDNAKNTVYLQRNSLKPEDTAVYYCNKDSSFWGYYIAQVNERDYWGQGTQVTVSS | low polyreactivity |
| QVQLVESGGGLVQAGGSLRLSCAASGRTFDIYAMGWYRQAPGKERELVADITWSDGTTYYADSVKGRFTISRDNAKNTVYLQMNSLKPEDTAVYYCNAYTVYAYDYWGQGTQVTVSS | low polyreactivity |
| QVQLVESGGGLVQAGGSLRLSCAASGRTFDRYAMGWYRQAPGKERELVAAISSGGSTYYADSVKGRFTISRDNAKNTVYLQMNSLKPEDTAVYYCAAGESGSFFIYYYWGQGTQVTVSS | low polyreactivity |
| QVQLVESGGGLVQAGGSLRLSCAASGRTFDRYAMGWYRQAPGKERELVAAITWSGGRTYYADSVKGRFTISRDNAKNTVYLQMNSLKPEDTAVYYCAADNSYRGYHSPYDYWGQGTQVTVSS | low polyreactivity |
| QVQLVESGGGLVQAGGSLRLSCAASGRTFDSYAMGWYRQAPGKERELVAAIYADSVKGRFTISRDNAKNTVYLQMNSLKPEDTAVYYCAAETYSGQTYLGEYDYWGQGTQVTVSS | low polyreactivity |
| QVQLVESGGGLVQAGGSLRLSCAASGRTFDSYTMGWYRQAPGKERELVADITFTGGSTYYADSVKGRFTISRDNAKNTVYLQMNSLKPEDTAVYYCNADREYKWYFRYDYWGQGTQVTVSS | low polyreactivity |
| QVQLVESGGGLVQAGGSLRLSCAASGRTFDTNARGWYRQAPGKERELVAVITARGGNTSYADSVKGRFTISRDNAKNTVYLQMNSLKPEDTAVYYCAARVYRAPWTYEEGNYWGQGTQVTVSS | low polyreactivity |
| QVQLVESGGGLVQAGGSLRLSCAASGRTFDTNPMGWYRQAPGKERELVAVITARGGNTSYADSVKGRFTISRDNAKNTVYLQMNSLKPEDTAVYYCAARVYRAPWTYEEGNYWGQGTQVTVSS | low polyreactivity |
| QVQLVESGGGLVQAGGSLRLSCAASGRTFDYNAIGWYRQAPGKERDFVAAISGRGGSTYYADSVKARFTISRDNAKNRVYLQMYSLKPEDTAVYYCAADLRFRYSGRYDYWGQGTQVTVSS | high polyreactivity |
| QVQLVESGGGLVQAGGSLRLSCAASGRTFDYNTMGWYRQAPGKERELVAAISASGGSTYYADSVKGRFTISRDNAKNTVYLQMNSLKPEDTAVYYCAAARAAIVPGYYSWGQGTQVTVSS | low polyreactivity |

| Sequence | polyreactivity (PSR sort gate) |
| --- | --- |
| QVQLVESGGGLVQAGGSLRLSCAASGRTFDYYAMGWYRPAPGKERELVAAIRTSGGSTNYADSVKGRFTISRDNAQNTVYLLMNSLKPEDTAVYYCAARDRPGAYYYGGQGTQVTVSS | high polyreactivity |
| QVQLVESGGGLVQAGGSLRLSCAASGRTFEGNAMGWYRQAPGKERELVAAITSGGRTNYADSVKGRFTISRDNAKNTVYLQMNSLKPEDTAVYYCAKVYRSIGPNVSRYGLSYYYWGLGTQVTVSS | low polyreactivity |
| QVQLVESGGGLVQAGGSLRLSCAASGRTFEHYAMGWYRQAPGKERELVAAINSSDGGTYYADSVKGRITISRDNPKNTVYLQMNSLKPEDTAVYYCAAAEFGSVPGYEMDYWGQGTQVTVSS | low polyreactivity |
| QVQLVESGGGLVQAGGSLRLSCAASGRTFENNAMGWYRQAPGKERELVATIRYSGTSTYADSVKGRFTISRDNAKNTVYLQMNSLKPEDTAVYYCAKQVRYYGYKYNYWGQGTQVTVSS | high polyreactivity |
| QVQLVESGGGLVQAGGSLRLSCAASGRTFEQYAMGWYRQAPGKERELVAAISKRGGSTYYADSVKGRFTISRDNAKNTVYLQMNSLKPEDTAVYYGATEKASNYFYRFDYWGQGTQVTVSS | low polyreactivity |
| QVQLVESGGGLVQAGGSLRLSCAASGRTFESYAMGWYRQAPGKERELVAAITWSGGDTYYADSVKGRFTISRDNAKNSVYLQMNSLKPEDTAVYYCAKEQGLYSVSPYDYWGQGSQVTVSS | low polyreactivity |
| QVQLVESGGGLVQAGGSLRLSCAASGRTFETNAMGWYRQAPGKERELVAAISRSGGRTYYADSVKGRFTISRDNAKNTVYLQMNSLKPEDTAVYYCAVRQATVTGGGYWGQGTQVTVSS | high polyreactivity |
| QVQLVESGGGLVQAGGSLRLSCAASGRTFEVYAMGRYRQPPGKERELVATITYSGGITYYADSVKGRFTISRDNAKNTVYLQMNSLKPEYTAVYYPICVGGDYDYWGQGTQVTVSS | low polyreactivity |
| QVQLVESGGGLVQAGGSLRLSCAASGRTFEVYAMGWYRQAPGKERELVAAISGGDDSTYYADSVQGRFTISRDNAKNTVYLQRNSLKPEDTAVYYCNAHYPTSATLPKTVVEYDYWGQGTQVTVSS | low polyreactivity |
| QVQLVESGGGLVQAGGSLRLSCAASGRTFFDYSMGWYRQAPGKERELVAAITGGDGSTYYADSVKGRFTISRDNAKNTVYIQMNSLKTEDTAVYYCAAENTRTYWYAAMDYWGQGTQVTVSS | low polyreactivity |
| QVQLVESGGGLVQAGGSLRLSCAASGRTFFGRNVMGWYRPAPGNDRELVAAITSSGASTYYADSVKGRFTISRDNAKNTVYLQMNSLKPEDTAVYYCAAVRYVWQGYDYWGQGTQVTVSS | high polyreactivity |
| QVQLVESGGGLVQAGGSLRLSCAASGRTFFGYAMGWYRQAPGKERELVAAITSSGGRTYYADSVKGRFTISRDNAKNTVYLQMNSLKTEDTAVYYCNTVLSFRSVNIYRGRGDYWGQGTLVTVSS | high polyreactivity |
| QVQLVESGGGLVQAGGSLRLSCAASGRTFFHYAMGWSRQAPGKERELVAGISSGGRTKYADSVKGRFTISRDNAKNTVYLQMNSLKPEDTAVYYCAASYIVWLTRGAPRKRFDYWGQGTQVTVSS | high polyreactivity |
| QVQLVESGGGLVQAGGSLRLSCAASGRTFFHYAMGWYRQAPGKERELVAAISYRGTSTYYADSVKGRFTISRDNAKNTVYLQMISLKPEDTAVYYCNAYSTRCGWSYRGDSWGQGTQVTVSS | high polyreactivity |
| QVQLVESGGGLVQAGGSLRLSCAASGRTFFLYAMGWYRQAPGKESEFVATISYGGGSTYYADSVKGRFTISRDNAKNTVYLQMNSLKPEDTAVYYCNALNTSQYAEGTSDYDGNMGNWGQCTQVTVSS | low polyreactivity |
| QVQLVESGGGLVQAGGSLRLSCAASGRTFFQYAMGGYRQAPGKERELVAAIRWSDSTYYADSVKGRFTISRDKAKNTVYLPMNSLKPEDTAVYYCNASVFQSEYDYWGQGTQVTVSS | low polyreactivity |
| QVQLVESGGGLVQAGGSLRLSCAASGRTFFRYAMGWYRQAPGKERELVAAISSSGGSSYYADSVKGRFTISRDNAKNTVYLQMNSLKPEDTAVYYCNRVYALTYYAKYGYDFWGQGTQVTVSS | high polyreactivity |
| QVQLVESGGGLVQAGGSLRLSCAASGRTFFRYARGGYRQAPGKERELVAAISVSGASTNYADSVKGRFTISRDNAKNTGYLQMNSQKPEDTAVYYCAARVADYDGVPLYRHGDYWGPGTQVTVSS | low polyreactivity |
| QVQLVESGGGLVQAGGSLRLSCAASGRTFFWNAMGWYRQAPGKERELVAAITWSGGSTYYADSVKGRFTISRDNAKTTVYLQMNSLKPEDTAVYYCAAVVSDYVWRYEYWGQGTQVTVSS | low polyreactivity |
| QVQLVESGGGLVQAGGSLRLSCAASGRTFFYAMGWYRQAPGKEREFVAAISWSGGSTYYADSVKGRFTISRDNAKNTVYLQMNSLKPEDTAVYYCNKVGYYGVGTSQEFDYWGQGTQVTVSS | high polyreactivity |
